Biological target: ACE2 on Vero E6 cells (monkey (endogenous in Vero E6))
Assay: flow cytometry on cells

functional peptide KYPAY (K5) showed an IC50 of 6.7 µM.

Source: publication PMC11242946, “Inhibition of ACE2–S Protein Interaction by a Short Functional Peptide with a Boomerang Structure” (Molecules, 2024)
